Sequences and labels used below:
B1: scFv; the commonest letter at each place (parent)
chain 1: EVKLDETGGGLVQPGRPMKLSCVASGFTFSDYWMNWVRQSPEKGLEWVAQIRNKPYNYETYYSDSVKGRFTISRDDSKSSVYLQMNNLRVEDMGIYYCTGSYYGMDYWGQGTSVTVS
chain 2: DVVMTQTPLSLPVSLGDQASISCRSSQSLVHSNGNTYLRWYLQKPGQSPKVLIYKVSNRFSGVPDRFSGSGSGTDFTLKISRVEAEDLGVYFCSQSTHVPWTFGGGTKLEIK

In the data set “fluorescein” the parent is B1. The data set can be described thus: Kd (Tite-Seq). To be noted: with fluorescein; format: scFv 4-4-20, heavy + light.
Variants of B1 are the subject of data set [1]. The data set can be described thus: yeast surface expression (ratio to wild type); higher = more expressed. To be noted: format: scFv 4-4-20, heavy + light.

Bounds are passed on as bounds.

Experimental findings from the FLAb antibody collection (doi:10.7554/elife.23156) are described below.

As usually defined, the Kd is the concentration at which binding is half-saturated.

Take chain 1 EVKLDETGGGLVQPGRPMKLSCVASGFTLLDYWMNWVRQSPEKGLEWVAQIRNKPYNYETYYSDSVKGRFTISRDDSKSSVYLQMNNLRVEDMGIYYCTGSYYGMDYWGQGTSVTVS chain 2 DVVMTQTPLSLPVSLGDQASISCRSSQSLVHSNGNTYLRWYLQKPGQSPKVLIYKVSNRFSGVPDRFSGSGSGTDFTLKISRVEAEDLGVYFCSQSTHVPWTFGGGTKLEIK [chain 1 F29L S30L]: in the data set with fluorescein, the equilibrium dissociation constant (Kd) was not below 10 µM. For the same variant, in data set [1], the yeast surface expression came out at 0.651.

Turning to chain 1 EVKLDETGGGLVQPGRPMKLSCVASGFTFSDYWMWWGRQSPEKGLEWVAQIRNKPYNYETYYSDSVKGRFTISRDDSKSSVYLQMNNLRVEDMGIYYCTGSYYGMDYWGQGTSVTVS chain 2 DVVMTQTPLSLPVSLGDQASISCRSSQSLVHSNGNTYLRWYLQKPGQSPKVLIYKVSNRFSGVPDRFSGSGSGTDFTLKISRVEAEDLGVYFCSQSTHVPWTFGGGTKLEIK [chain 1 N35W V37G], the dissociation constant (Kd) with fluorescein was determined as 0.021 µM. Also, the yeast surface expression in data set [1] was 1.18.

chain 1 EVKLDETGGGLVQPGRPMKLSCVASGFTFSDYDMNWCRQSPEKGLEWVAQIRNKPYNYETYYSDSVKGRFTISRDDSKSSVYLQMNNLRVEDMGIYYCTGSYYGMDYWGQGTSVTVS chain 2 DVVMTQTPLSLPVSLGDQASISCRSSQSLVHSNGNTYLRWYLQKPGQSPKVLIYKVSNRFSGVPDRFSGSGSGTDFTLKISRVEAEDLGVYFCSQSTHVPWTFGGGTKLEIK [chain 1 W33D V37C]: the Kd in the data set with fluorescein was not below 10 µM. Moreover, in data set [1], the yeast surface expression was 0.802.

Regarding chain 1 EVKLDETGGGLVQPGRPMKLSCVASGFTRSDQWMNWVRQSPEKGLEWVAQIRNKPYNYETYYSDSVKGRFTISRDDSKSSVYLQMNNLRVEDMGIYYCTGSYYGMDYWGQGTSVTVS chain 2 DVVMTQTPLSLPVSLGDQASISCRSSQSLVHSNGNTYLRWYLQKPGQSPKVLIYKVSNRFSGVPDRFSGSGSGTDFTLKISRVEAEDLGVYFCSQSTHVPWTFGGGTKLEIK [chain 1 F29R Y32Q], the equilibrium dissociation constant (Kd) in the data set with fluorescein is not below 10 µM. In addition, the yeast surface expression in data set [1] is 0.633.

On to chain 1 EVKLDETGGGLVQPGRPMKLSCVASGFTSSDYCMNWVRQSPEKGLEWVAQIRNKPYNYETYYSDSVKGRFTISRDDSKSSVYLQMNNLRVEDMGIYYCTGSYYGMDYWGQGTSVTVS chain 2 DVVMTQTPLSLPVSLGDQASISCRSSQSLVHSNGNTYLRWYLQKPGQSPKVLIYKVSNRFSGVPDRFSGSGSGTDFTLKISRVEAEDLGVYFCSQSTHVPWTFGGGTKLEIK [chain 1 F29S W33C], for which, in the data set with fluorescein, the Kd is not below 10 µM. Further, the yeast surface expression in data set [1] was 0.865.

chain 1 EVKLDETGGGLVQPGRPMKLSCVASGFTLSDYWMTWVRQSPEKGLEWVAQIRNKPYNYETYYSDSVKGRFTISRDDSKSSVYLQMNNLRVEDMGIYYCTGSYYGMDYWGQGTSVTVS chain 2 DVVMTQTPLSLPVSLGDQASISCRSSQSLVHSNGNTYLRWYLQKPGQSPKVLIYKVSNRFSGVPDRFSGSGSGTDFTLKISRVEAEDLGVYFCSQSTHVPWTFGGGTKLEIK [chain 1 F29L N35T]: the dissociation constant (Kd) in the data set with fluorescein is not below 10 µM. Also, the yeast surface expression in data set [1] worked out at 0.76.

In the case of chain 1 EVKLDETGGGLVQPGRPMKLSCVASGFCFSSYWMNWVRQSPEKGLEWVAQIRNKPYNYETYYSDSVKGRFTISRDDSKSSVYLQMNNLRVEDMGIYYCTGSYYGMDYWGQGTSVTVS chain 2 DVVMTQTPLSLPVSLGDQASISCRSSQSLVHSNGNTYLRWYLQKPGQSPKVLIYKVSNRFSGVPDRFSGSGSGTDFTLKISRVEAEDLGVYFCSQSTHVPWTFGGGTKLEIK [chain 1 T28C D31S], the equilibrium dissociation constant (Kd) with fluorescein came out at 0.00638 µM. Also, the yeast surface expression in data set [1] stood at 0.694.

Consider chain 1 EVKLDETGGGLVQPGRPMKLSCVASGFTISDYDWNWVRQSPEKGLEWVAQIRNKPYNYETYYSDSVKGRFTISRDDSKSSVYLQMNNLRVEDMGIYYCTGSYYGMDYWGQGTSVTVS chain 2 DVVMTQTPLSLPVSLGDQASISCRSSQSLVHSNGNTYLRWYLQKPGQSPKVLIYKVSNRFSGVPDRFSGSGSGTDFTLKISRVEAEDLGVYFCSQSTHVPWTFGGGTKLEIK [chain 1 F29I W33D M34W], for which the dissociation constant Kd with fluorescein is not below 10 µM. Besides, the yeast surface expression in data set [1] is 0.719.

With chain 1 EVKLDETGGGLVQPGRPMKLSCVASGFTFSDNWENWVRQSPEKGLEWVAQIRNKPYNYETYYSDSVKGRFTISRDDSKSSVYLQMNNLRVEDMGIYYCTGSYYGMDYWGQGTSVTVS chain 2 DVVMTQTPLSLPVSLGDQASISCRSSQSLVHSNGNTYLRWYLQKPGQSPKVLIYKVSNRFSGVPDRFSGSGSGTDFTLKISRVEAEDLGVYFCSQSTHVPWTFGGGTKLEIK [chain 1 Y32N M34E], in the data set with fluorescein, the dissociation constant Kd came out at 0.021 µM.

chain 1 EVKLDETGGGLVQPGRPMKLSCVASGFTFSDRIMNWVRQSPEKGLEWVAQIRNKPYNYETYYSDSVKGRFTISRDDSKSSVYLQMNNLRVEDMGIYYCTGSYYGMDYWGQGTSVTVS chain 2 DVVMTQTPLSLPVSLGDQASISCRSSQSLVHSNGNTYLRWYLQKPGQSPKVLIYKVSNRFSGVPDRFSGSGSGTDFTLKISRVEAEDLGVYFCSQSTHVPWTFGGGTKLEIK [chain 1 Y32R W33I]: in the data set with fluorescein, the Kd was not below 10 µM. In data set [1], the yeast surface expression was 0.763.

As for chain 1 EVKLDETGGGLVQPGRPMKLSCVASGFTFSDYWMNWVRQSPEKGLEWVAQIRNKPYNYETYYSDSVKGRFTISRDDSKSSVYLQMNNLRVEDMGIYYCTGLYYGMDYWGQGTSVTVS chain 2 DVVMTQTPLSLPVSLGDQASISCRSSQSLVHSNGNTYLRWYLQKPGQSPKVLIYKVSNRFSGVPDRFSGSGSGTDFTLKISRVEAEDLGVYFCSQSTHVPWTFGGGTKLEIK [chain 1 S101L], the Kd with fluorescein is not below 10 µM. Moreover, the yeast surface expression in data set [1] was found to be 0.497.

For the variant chain 1 EVKLDETGGGLVQPGRPMKLSCVASGFTFSDKEMNWVRQSPEKGLEWVAQIRNKPYNYETYYSDSVKGRFTISRDDSKSSVYLQMNNLRVEDMGIYYCTGSYYGMDYWGQGTSVTVS chain 2 DVVMTQTPLSLPVSLGDQASISCRSSQSLVHSNGNTYLRWYLQKPGQSPKVLIYKVSNRFSGVPDRFSGSGSGTDFTLKISRVEAEDLGVYFCSQSTHVPWTFGGGTKLEIK [chain 1 Y32K W33E], the Kd with fluorescein was not below 10 µM. Also, the yeast surface expression in data set [1] was 0.552.

As to chain 1 EVKLDETGGGLVQPGRPMKLSCVASGFTFSDYWKNWVRQSPEKGLEWVAQIRNKPYNYETYYSDSVKGRFTISRDDSKSSVYLQMNNLRVEDMGIYYCTGSYYGMDYWGQGTSVTVS chain 2 DVVMTQTPLSLPVSLGDQASISCRSSQSLVHSNGNTYLRWYLQKPGQSPKVLIYKVSNRFSGVPDRFSGSGSGTDFTLKISRVEAEDLGVYFCSQSTHVPWTFGGGTKLEIK [chain 1 M34K], the Kd with fluorescein stood at 0.694 µM. The yeast surface expression in data set [1] amounted to 0.913.
